{"source": "patent US20210246166A1", "about": "(Bayer, published 2021)", "binders": {"B1": {"name": "Example 530: ((N-Me)G)-IC+SRSLP-(Oic)-I-(Pen)+IP-((R)-Pyrrolidine-3-acetic acid)-OH (peptide)", "peptide": "[Sar]ICSRSLP[Oic]I[Pen]IP[(R)‑Pyrrolidine‑3‑acetic acid]-OH", "modifications": "disulfide 3-11; N-terminus assumed", "SMILES": "CC[C@H](C)[C@H](NC(=O)CNC)C(=O)N[C@H]1CSSC(C)(C)[C@@H](C(=O)N[C@H](C(=O)N2CCC[C@H]2C(=O)N2CC[C@H](CC(=O)O)C2)[C@@H](C)CC)NC(=O)[C@H]([C@@H](C)CC)NC(=O)[C@@H]2C[C@@H]3CCCC[C@@H]3N2C(=O)[C@@H]2CCCN2C(=O)[C@H](CC(C)C)NC(=O)[C@H](CO)NC(=O)[C@H](CCCNC(=N)N)NC(=O)[C@H](CO)NC1=O"}, "B2": {"name": "Example 306: (beta-A)-IC+SRSLPPIC+IPD-OH (peptide)", "peptide": "[βAla]ICSRSLPPICIPD-OH", "modifications": "disulfide 3-11; N-terminus assumed", "SMILES": "CC[C@H](C)[C@H](NC(=O)CCN)C(=O)N[C@H]1CSSC[C@@H](C(=O)N[C@H](C(=O)N2CCC[C@H]2C(=O)N[C@@H](CC(=O)O)C(=O)O)[C@@H](C)CC)NC(=O)[C@H]([C@@H](C)CC)NC(=O)[C@@H]2CCCN2C(=O)[C@@H]2CCCN2C(=O)[C@H](CC(C)C)NC(=O)[C@H](CO)NC(=O)[C@H](CCCNC(=N)N)NC(=O)[C@H](CO)NC1=O"}, "B3": {"name": "Example 305: (Tetrahydropyranyl-4-acetic acid)-IC+SRS-((tBu)A)-PPI-((N-Me)C)+I-NH2 (peptide)", "peptide": "X5-ICSRS[tBuAla]PPI[NMeC]I-NH2", "modifications": "disulfide 2-10", "SMILES": "CC[C@H](C)[C@H](NC(=O)[C@@H]1CSSC[C@H](NC(=O)[C@@H](NC(=O)CC2CCOCC2)[C@@H](C)CC)C(=O)N[C@@H](CO)C(=O)N[C@@H](CCCNC(=N)N)C(=O)N[C@@H](CO)C(=O)N[C@@H](CC(C)(C)C)C(=O)N2CCC[C@H]2C(=O)N2CCC[C@H]2C(=O)N[C@@H]([C@@H](C)CC)C(=O)N1C)C(N)=O"}, "B4": {"name": "Example 310: ((N-Me)G)-I-(Pen)+SRS-((tBu)A)-PPI-C+IP-NH2 (peptide)", "peptide": "[Sar]I[Pen]SRS[tBuAla]PPICIP-NH2", "modifications": "disulfide 3-11; N-terminus assumed", "SMILES": "CC[C@H](C)[C@H](NC(=O)CNC)C(=O)N[C@@H]1C(=O)N[C@@H](CO)C(=O)N[C@@H](CCCNC(=N)N)C(=O)N[C@@H](CO)C(=O)N[C@@H](CC(C)(C)C)C(=O)N2CCC[C@H]2C(=O)N2CCC[C@H]2C(=O)N[C@@H]([C@@H](C)CC)C(=O)N[C@H](C(=O)N[C@H](C(=O)N2CCC[C@H]2C(N)=O)[C@@H](C)CC)CSSC1(C)C"}, "B5": {"name": "Example 311: ((N-Ph)G)-IC+SRS-((tBu)A)-PPI-(Pen)+IP-NH2 (peptide)", "peptide": "[NPhGly]ICSRS[tBuAla]PPI[Pen]IP-NH2", "modifications": "disulfide 3-11; N-terminus assumed", "SMILES": "CC[C@H](C)[C@H](NC(=O)CNc1ccccc1)C(=O)N[C@H]1CSSC(C)(C)[C@@H](C(=O)N[C@H](C(=O)N2CCC[C@H]2C(N)=O)[C@@H](C)CC)NC(=O)[C@H]([C@@H](C)CC)NC(=O)[C@@H]2CCCN2C(=O)[C@@H]2CCCN2C(=O)[C@H](CC(C)(C)C)NC(=O)[C@H](CO)NC(=O)[C@H](CCCNC(=N)N)NC(=O)[C@H](CO)NC1=O"}}, "note": "Numbered stars: 1 amine (or outer) side, 2 acyl side, 3 side chain; on linkers, the order of the positions; unused ones are H or OH. Bridge positions count the residues as written; N and C are the ends. Square brackets hold non-standard residues; d marks the D form. Ends that are not written are not given here. * marks the point of attachment. (R)‑Pyrrolidine‑3‑acetic acid = O=C(C[C@H]1CCN([*:1])C1)[*:2]; X5 = Tetrahydropyranyl‑4‑acetic acid, O=C(CC1CCOCC1)*; Oic = O=C(O)[C@@H]1C[C@@H]2CCCC[C@@H]2N1; tBuAla = CC(C)(C)C[C@H](N)C(=O)O; Pen = CC(C)(S)[C@H](N)C(=O)O; NMeC = CN[C@@H](CS)C(=O)O; NPhGly = O=C(O)CNc1ccccc1; PEG2 = NCCOCCOCCC(=O)O; βAla = NCCC(=O)O; Sar = CNCC(=O)O"}
{"target": "T1, recombinant rat MASP1 active protease (amino acids 302-704, C-terminal His Tag) (rat, UniProt Q8CHN8 302-704)", "T1 sequence": "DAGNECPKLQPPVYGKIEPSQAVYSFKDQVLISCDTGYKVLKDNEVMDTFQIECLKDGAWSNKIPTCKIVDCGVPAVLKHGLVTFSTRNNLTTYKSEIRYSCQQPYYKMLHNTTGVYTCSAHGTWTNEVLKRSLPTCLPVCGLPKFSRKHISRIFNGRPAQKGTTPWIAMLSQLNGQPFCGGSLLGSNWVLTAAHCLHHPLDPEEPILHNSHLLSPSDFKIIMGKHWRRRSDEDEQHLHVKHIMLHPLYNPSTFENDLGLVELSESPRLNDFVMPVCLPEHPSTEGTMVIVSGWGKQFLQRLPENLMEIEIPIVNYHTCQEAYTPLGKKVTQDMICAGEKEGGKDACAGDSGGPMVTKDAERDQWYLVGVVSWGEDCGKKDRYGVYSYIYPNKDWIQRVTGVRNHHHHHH", "experiment": "cell-based or functional assay", "units": {"rat MASP1 IC50": "nM"}}
{"binder": "[Sar]ICSRS[tBuAla]PPI[Pen]IP-{PEG2-OH} (disulfide 3-11)", "note": "[Example 498: ((N-Me)G)-IC+SRS-((tBu)A)-PPI-(Pen)+IP-(PEG1(10 atoms))-OH]", "rat MASP1 IC50": 44}
{"binder": "B1", "rat MASP1 IC50": 23.3}
{"target": "recombinant rat MASP2 active protease (amino acids 296-685, C-terminal His Tag) (rat, UniProt Q9JJS8 296-685)", "sequence (Q9JJS8 other isoform, or with tags, fused parts or gaps limits assumed)": "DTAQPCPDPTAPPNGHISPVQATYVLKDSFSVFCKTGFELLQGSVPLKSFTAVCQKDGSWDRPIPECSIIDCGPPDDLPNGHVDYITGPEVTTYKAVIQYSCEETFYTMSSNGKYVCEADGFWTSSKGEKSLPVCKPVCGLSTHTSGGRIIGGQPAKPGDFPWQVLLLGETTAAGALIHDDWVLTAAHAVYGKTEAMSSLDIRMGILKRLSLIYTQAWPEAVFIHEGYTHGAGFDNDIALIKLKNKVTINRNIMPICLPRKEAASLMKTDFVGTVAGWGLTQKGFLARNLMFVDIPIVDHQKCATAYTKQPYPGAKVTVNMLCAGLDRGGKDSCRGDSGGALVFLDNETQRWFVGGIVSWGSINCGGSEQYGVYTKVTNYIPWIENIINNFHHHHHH", "experiment": "cell-based or functional assay", "units": {"rat MASP2 IC50": "nM"}}
{"binder": "[Sar]ICSRS[tBuAla]PPI[Pen]IP-{PEG2-OH} (disulfide 3-11)", "note": "[Example 498: ((N-Me)G)-IC+SRS-((tBu)A)-PPI-(Pen)+IP-(PEG1(10 atoms))-OH]", "rat MASP2 IC50": 42}
{"binder": "B1", "rat MASP2 IC50": 18.4}
{"target": "T2, recombinant human MASP1 active protease (amino acids 297-699, C-terminal His Tag) (human, UniProt P48740 297-699)", "T2 sequence": "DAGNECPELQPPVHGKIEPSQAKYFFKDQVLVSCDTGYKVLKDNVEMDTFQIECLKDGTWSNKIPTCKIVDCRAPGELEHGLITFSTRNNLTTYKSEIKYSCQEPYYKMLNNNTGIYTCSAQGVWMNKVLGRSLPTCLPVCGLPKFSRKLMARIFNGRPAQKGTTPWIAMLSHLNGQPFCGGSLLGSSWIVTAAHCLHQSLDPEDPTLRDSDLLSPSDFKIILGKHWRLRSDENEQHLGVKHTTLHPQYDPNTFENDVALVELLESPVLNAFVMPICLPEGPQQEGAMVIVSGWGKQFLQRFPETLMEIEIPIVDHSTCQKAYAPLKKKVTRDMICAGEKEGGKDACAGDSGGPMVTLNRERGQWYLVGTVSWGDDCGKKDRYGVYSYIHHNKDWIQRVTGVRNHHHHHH", "experiment": "cell-based or functional assay", "units": {"human MASP1 IC50": "nM"}}
{"binder": "B2", "human MASP1 IC50": 20}
{"binder": "B3", "human MASP1 IC50": 19}
{"binder": "B4", "human MASP1 IC50": 20}
{"binder": "B5", "human MASP1 IC50": 20}
{"binder": "{Tetrahydro‑2H‑pyran‑3‑ylacetic acid}-ICSRSLP[Oic]I[Pen]IP-NH2 (disulfide 2-10)", "note": "[Example 304: (Tetrahydro-2H-pyran-3-ylacetic acid)-IC+SRSLP-(Oic)-I-(Pen)+IP-NH2]", "human MASP1 IC50": 19}
{"target": "recombinant human MASP2 active protease (amino acids 297-686, C-terminal His Tag) (human, UniProt O00187 297-686)", "sequence (O00187 other isoform, or with tags, fused parts or gaps limits assumed)": "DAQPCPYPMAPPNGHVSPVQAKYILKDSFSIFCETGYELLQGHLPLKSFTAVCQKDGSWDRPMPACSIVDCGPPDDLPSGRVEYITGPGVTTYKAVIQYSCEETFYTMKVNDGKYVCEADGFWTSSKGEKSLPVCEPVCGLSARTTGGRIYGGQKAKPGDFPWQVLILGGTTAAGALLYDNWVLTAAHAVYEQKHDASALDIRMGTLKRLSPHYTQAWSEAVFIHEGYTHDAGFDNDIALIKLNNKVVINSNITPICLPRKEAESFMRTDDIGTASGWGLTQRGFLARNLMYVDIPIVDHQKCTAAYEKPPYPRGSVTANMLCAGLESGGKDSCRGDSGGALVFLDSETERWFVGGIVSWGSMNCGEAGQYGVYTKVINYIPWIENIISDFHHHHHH", "experiment": "cell-based or functional assay", "units": {"human MASP2 IC50": "nM"}}
{"binder": "B2", "human MASP2 IC50": 450}
{"binder": "B3", "human MASP2 IC50": 9.4}
{"binder": "B4", "human MASP2 IC50": 3000}
{"binder": "B5", "human MASP2 IC50": 49}
{"binder": "{Tetrahydro‑2H‑pyran‑3‑ylacetic acid}-ICSRSLP[Oic]I[Pen]IP-NH2 (disulfide 2-10)", "note": "[Example 304: (Tetrahydro-2H-pyran-3-ylacetic acid)-IC+SRSLP-(Oic)-I-(Pen)+IP-NH2]", "human MASP2 IC50": 27}
